From the supplement of paper PMC10724198
± gives the standard deviation of the averaged measurements.

The sequences below were run on Saccharomyces cerevisiae (assay: protein stability index of tFT-peptide fusion (C-terminal peptide) (PSI (0-1 scale)); higher = more stable (slower turnover)). Details: genetic background: wild type; temperature: 30 C.
Description: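 Multiplexed protein stability (MPS) profiling in S. cerevisiae. Random 12-aa peptides (tFT-X12 library) are fused to the C-terminus of a sfGFP-mCherry tandem fluorescent timer, after mCherry and a GGGS linker. Cells are FACS-sorted into 8 mCherry/sfGFP bins and deep-sequenced. The protein stability index (PSI) is the read-weighted bin average, scaled from 0 (unstable) to 1 (stable). Only peptides with >10 reads are reported; cells were grown at 30 °C in SC-His with glucose.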
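Note: PSI is a weighted mean of sequencing reads over stability bins, variants kept only with over 10 reads, mCherry proximal and sfGFP distal, peptide attached via GGGS linker.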

Question: For RSTTDNADRILY, which protein stability index is on record?
Answer: The protein stability index was 0.7299 ± 0.0022.

Question: Which protein stability index does the source give for TQWRSRRHLKPQ here?
Answer: Its protein stability index is 0.72 ± 0.032.

Question: ALSLARVSSPLF was tested. Which protein stability index did it give?
Answer: The protein stability index was 0.707 ± 0.06.

Question: With PSPPCPPTDPPA as the sequence, how does the protein stability index read?
Answer: Its protein stability index is 0.624 ± 0.011.

Question: For PPRGPPPPPADP, which protein stability index is on record?
Answer: Its protein stability index is 0.7 ± 0.022.

Question: How did the protein stability index turn out when PTLLRRPLPNLG was run?
Answer: Its protein stability index is 0.73 ± 0.02.

Question: For RPPLSSPPPPPP, which protein stability index is on record?
Answer: The protein stability index was 0.701 ± 0.017.

Question: GWGGGAAQKCGQ was tested. Which protein stability index did it give?
Answer: Its protein stability index is 0.7 ± 0.039.

Question: GSGRSGSRFLPV was tested. Which protein stability index did it give?
Answer: The protein stability index was 0.6606 ± 0.0057.

Question: Which protein stability index does the source give for GCAFVVLLSRGF here?
Answer: Its protein stability index is 0.604 ± 0.083.

Question: Which protein stability index does the source give for LGWGRGGPLSGG here?
Answer: Its protein stability index is 0.6937 ± 0.0018.

Question: How did the protein stability index turn out when PPPPRRAPPPGT was run?
Answer: The protein stability index was 0.699 ± 0.021.

Question: How did the protein stability index turn out when FGFIEGKRLGIT was run?
Answer: The protein stability index was 0.62 ± 0.041.

Question: With GGDDKREPGGAR as the sequence, how does the protein stability index read?
Answer: Its protein stability index is 0.6603 ± 0.0025.

Question: For GGGGGGGGRRPG, which protein stability index is on record?
Answer: The protein stability index was 0.616 ± 0.0097.

Question: With SDSAPPPAALPH as the sequence, how does the protein stability index read?
Answer: The protein stability index was 0.7263 ± 0.0029.

Question: Which protein stability index does the source give for AIAGSLSYCWDD here?
Answer: Its protein stability index is 0.678 ± 0.022.

Question: Which protein stability index does the source give for VCAVRVGGGGEG here?
Answer: The protein stability index was 0.601 ± 0.04.

Question: Which protein stability index does the source give for GLLSKVEFEEYQ here?
Answer: The protein stability index was 0.655 ± 0.014.

Question: How did the protein stability index turn out when TLYKSEQIAFFL was run?
Answer: The protein stability index was 0.644 ± 0.047.

Question: Which protein stability index does the source give for GWLIWRVYGGGG here?
Answer: The protein stability index was 0.654 ± 0.014.

Question: How did the protein stability index turn out when QKENTKEKKKRE was run?
Answer: Its protein stability index is 0.686 ± 0.015.

Question: KKKKKQTKGKNK was tested. Which protein stability index did it give?
Answer: Its protein stability index is 0.688 ± 0.12.

Question: How did the protein stability index turn out when KAKKNNERAKHR was run?
Answer: Its protein stability index is 0.681 ± 0.029.

Question: With VRLHVPLQRFMK as the sequence, how does the protein stability index read?
Answer: Its protein stability index is 0.73 ± 0.029.

Question: LFLLPPLLPLPP was tested. Which protein stability index did it give?
Answer: The protein stability index was 0.7361 ± 0.00058.

Question: How did the protein stability index turn out when GGGRGEVEGHSG was run?
Answer: The protein stability index was 0.709 ± 0.013.

Question: Which protein stability index does the source give for PPPFPPPPARSL here?
Answer: Its protein stability index is 0.474 ± 0.043.

Question: With ARPFCPLYTPRG as the sequence, how does the protein stability index read?
Answer: Its protein stability index is 0.686 ± 0.043.

Question: For PALPHQPLPRPQ, which protein stability index is on record?
Answer: The protein stability index was 0.797 ± 0.023.

Question: FCSCLCGGEFVR was tested. Which protein stability index did it give?
Answer: The protein stability index was 0.69 ± 0.03.

Question: Which protein stability index does the source give for PPPSRPLLPFPP here?
Answer: Its protein stability index is 0.706 ± 0.012.

Question: Which protein stability index does the source give for GVVSSHVDMIGL here?
Answer: The protein stability index was 0.668 ± 0.0067.

Question: FLHPLTPSPPLA was tested. Which protein stability index did it give?
Answer: The protein stability index was 0.711 ± 0.096.

Question: With ATPTQADRMPVT as the sequence, how does the protein stability index read?
Answer: The protein stability index was 0.721 ± 0.1.

Question: With GGGSGGREPGGS as the sequence, how does the protein stability index read?
Answer: The protein stability index was 0.726 ± 0.027.

Question: With VGCQAIESRLHL as the sequence, how does the protein stability index read?
Answer: Its protein stability index is 0.737 ± 0.077.

Question: SPPSLYRRVRPS was tested. Which protein stability index did it give?
Answer: The protein stability index was 0.63 ± 0.084.

Question: With RYQMVTGPPQRH as the sequence, how does the protein stability index read?
Answer: The protein stability index was 0.6921 ± 0.004.

Question: With HVLQFQTNIRQN as the sequence, how does the protein stability index read?
Answer: The protein stability index was 0.636 ± 0.1.

Question: How did the protein stability index turn out when PRPCASALPPHP was run?
Answer: Its protein stability index is 0.712 ± 0.051.

Question: For SLGAPPAVVSSY, which protein stability index is on record?
Answer: The protein stability index was 0.6822 ± 0.0033.

Question: How did the protein stability index turn out when PPPPRSPVCLPL was run?
Answer: Its protein stability index is 0.792 ± 0.011.

Question: Which protein stability index does the source give for LSDFFLDREGRV here?
Answer: Its protein stability index is 0.654 ± 0.034.

Question: For GFFFALGPPFSG, which protein stability index is on record?
Answer: Its protein stability index is 0.695 ± 0.019.

Question: For PPHPPPTTVHLA, which protein stability index is on record?
Answer: Its protein stability index is 0.7052 ± 0.002.

Question: For AGGGWAVQVGMG, which protein stability index is on record?
Answer: Its protein stability index is 0.684 ± 0.042.

Question: Which protein stability index does the source give for GTACIIVSGYGL here?
Answer: Its protein stability index is 0.643 ± 0.016.

Question: With PPPLVPPPPSSL as the sequence, how does the protein stability index read?
Answer: The protein stability index was 0.731 ± 0.011.

Question: Which protein stability index does the source give for GKMLCADRSLEY here?
Answer: Its protein stability index is 0.701 ± 0.11.

Question: How did the protein stability index turn out when KKKKGKKRRTRK was run?
Answer: Its protein stability index is 0.72 ± 0.041.

Question: QTKEGSDRHRSS was tested. Which protein stability index did it give?
Answer: The protein stability index was 0.748 ± 0.015.

Question: RQLLAVAELLTF was tested. Which protein stability index did it give?
Answer: The protein stability index was 0.677 ± 0.086.

Question: SGSRFRTVRAPE was tested. Which protein stability index did it give?
Answer: Its protein stability index is 0.654 ± 0.032.

Question: Which protein stability index does the source give for KRLNRVHRSTKV here?
Answer: The protein stability index was 0.687 ± 0.021.

Question: For KYIKNKKEKTEE, which protein stability index is on record?
Answer: Its protein stability index is 0.701 ± 0.017.

Question: For TPNLQPLPRNLD, which protein stability index is on record?
Answer: Its protein stability index is 0.765 ± 0.037.

Question: With PFSTWLSSPSLP as the sequence, how does the protein stability index read?
Answer: The protein stability index was 0.774 ± 0.07.

Question: Which protein stability index does the source give for FPPPPPPLTVLP here?
Answer: Its protein stability index is 0.728 ± 0.054.

Question: TSGRTLVNDKCT was tested. Which protein stability index did it give?
Answer: Its protein stability index is 0.716 ± 0.012.

Question: How did the protein stability index turn out when VVPDSGESSASG was run?
Answer: Its protein stability index is 0.654 ± 0.098.

Question: Which protein stability index does the source give for GAVRWGGAGVGV here?
Answer: The protein stability index was 0.73 ± 0.063.

Question: How did the protein stability index turn out when PLRAHLYRPSVP was run?
Answer: The protein stability index was 0.69 ± 0.03.

Question: MALAVRVVNCGA was tested. Which protein stability index did it give?
Answer: Its protein stability index is 0.591 ± 0.0087.

Question: LLPPPLPPLHSS was tested. Which protein stability index did it give?
Answer: Its protein stability index is 0.6828 ± 0.0054.

Question: Which protein stability index does the source give for KENKKKNKKYKK here?
Answer: Its protein stability index is 0.785 ± 0.16.

Question: With VGGRDDGFVWEG as the sequence, how does the protein stability index read?
Answer: Its protein stability index is 0.667 ± 0.031.

Question: How did the protein stability index turn out when SPRLPPSTHSPP was run?
Answer: Its protein stability index is 0.677 ± 0.15.

Question: With FRRLVTGVLSIF as the sequence, how does the protein stability index read?
Answer: The protein stability index was 0.559 ± 0.028.

Question: How did the protein stability index turn out when GTEKESRRKREQ was run?
Answer: The protein stability index was 0.698 ± 0.042.

Question: IKSHHVIPNSCL was tested. Which protein stability index did it give?
Answer: The protein stability index was 0.616 ± 0.058.

Question: How did the protein stability index turn out when DKKPVQVIIIRK was run?
Answer: Its protein stability index is 0.667 ± 0.1.

Question: For NIKLKVCKEEMR, which protein stability index is on record?
Answer: Its protein stability index is 0.5706 ± 0.0012.

Question: Which protein stability index does the source give for LVKKVKSSLASL here?
Answer: The protein stability index was 0.65 ± 0.076.

Question: For VWLSRLVFLSPL, which protein stability index is on record?
Answer: The protein stability index was 0.602 ± 0.0046.

Question: How did the protein stability index turn out when GNPGRTAHILQL was run?
Answer: Its protein stability index is 0.655 ± 0.03.

Question: For SGGAEGVRAGAA, which protein stability index is on record?
Answer: Its protein stability index is 0.715 ± 0.081.

Question: Which protein stability index does the source give for PTKLFDTRPRGA here?
Answer: Its protein stability index is 0.679 ± 0.05.

Question: PHPPRPPRAPPP was tested. Which protein stability index did it give?
Answer: The protein stability index was 0.634 ± 0.024.

Question: For NKKKKQRGKKQK, which protein stability index is on record?
Answer: The protein stability index was 0.725 ± 0.045.

Question: NFFGPAIFLRRR was tested. Which protein stability index did it give?
Answer: Its protein stability index is 0.678 ± 0.022.

Question: With NNNKKKDDNIDM as the sequence, how does the protein stability index read?
Answer: Its protein stability index is 0.618 ± 0.079.

Question: SSWGARSGRRPS was tested. Which protein stability index did it give?
Answer: The protein stability index was 0.6989 ± 0.0045.

Question: Which protein stability index does the source give for VFGPRSIARGAI here?
Answer: The protein stability index was 0.727 ± 0.12.

Question: Which protein stability index does the source give for PPLPPPRYLPPT here?
Answer: The protein stability index was 0.7124 ± 0.0027.

Question: Which protein stability index does the source give for LRAPRGEFHWFL here?
Answer: The protein stability index was 0.684 ± 0.11.

Question: For LPLPPLRSSRPL, which protein stability index is on record?
Answer: The protein stability index was 0.665 ± 0.036.

Question: How did the protein stability index turn out when FEIVARTYNVDT was run?
Answer: The protein stability index was 0.666 ± 0.023.

Question: LRLPPPPPLPHV was tested. Which protein stability index did it give?
Answer: Its protein stability index is 0.704 ± 0.033.

Question: Which protein stability index does the source give for TYQVVPRDAPYV here?
Answer: The protein stability index was 0.672 ± 0.025.

Question: With IENREVNIVERT as the sequence, how does the protein stability index read?
Answer: Its protein stability index is 0.686 ± 0.011.

Question: RHPEVGAATDGC was tested. Which protein stability index did it give?
Answer: The protein stability index was 0.708 ± 0.068.

Question: How did the protein stability index turn out when ACREVAGAPGGL was run?
Answer: Its protein stability index is 0.671 ± 0.035.

Question: How did the protein stability index turn out when FRGATRPHSGRS was run?
Answer: The protein stability index was 0.676 ± 0.048.

Question: With TCAGTGSTHLSR as the sequence, how does the protein stability index read?
Answer: The protein stability index was 0.688 ± 0.035.

Question: With PRCVRFPPVTLL as the sequence, how does the protein stability index read?
Answer: Its protein stability index is 0.7393 ± 0.0036.

Question: Which protein stability index does the source give for KKTIEQNNLTIV here?
Answer: The protein stability index was 0.7091 ± 0.002.

Question: With HSRKVHGLWALR as the sequence, how does the protein stability index read?
Answer: Its protein stability index is 0.695 ± 0.0081.
